Test results from US20240350630A1.

Assays:
[1] = molecular target: recombinant human BCMA (Acro Biosystems) (human) (UniProt Q02223); assay: SPR, scFv-Fc captured by anti-human IgG Fc on a CM5 chip, BCMA as analyte, global fit
[2] = molecular target: recombinant human BCMA (Acro Biosystems) (human) (UniProt Q02223); assay: SPR: scFv-Fc captured on an anti-human IgG Fc CM5 chip (sheet: ligand 20nM), recombinant human BCMA as analyte, 1:1 Binding model, 25 C
[3] = molecular target: rBCMA conjugated with AF647 (UniProt Q02223); assay: flow cytometry of primary T cells transduced with the CAR, stained with labelled recombinant BCMA (sheet: rBCMA-APC, APC-A; text: BCMA-AF647 at 1 ug/ml); untransduced T cells (UT) give 0.61 in the same gate

| Kd [1] [nM] | Kd [2] [nM] | koff [2] [s⁻¹] | kon [2] [M⁻¹ s⁻¹] | % BCMA CAR+ cells [3] [%] | Binder |
| --- | --- | --- | --- | --- | --- |
| 0.44 | 0.355 | 0.00486 | 1.37e+07 |  | 7A8.11 scFv-Fc (Fc fusion, not shown: a dimerising Fc or GST; small tags and cut ends) scFv: EVQLVESGGGLVQPGGSLRLSCEASGFTFSSFWMNWVRQAPGKGLEWVANIKEDGSEKYYVDSVKGRFTISRDNAKNSLYLQMNSLRVEDTAVYYCARALDYYGMDVWGQGTTVTVSSGGGGSGGGGSGGGGSGGGGSYIVMTQTPLSLPVTPGEPASISCRSSQSLLDSDDGNTYLDWYLQKPGQSPQLLIYTLSYRASGVPDRFSGSGSGTDFTLKISRVEAEDVGVYYCMQRIEFPSYTFGQGTKLEIK |
| 0.37 | 0.371 | 0.000673 | 1.81e+06 |  | L15 scFv-Fc (Fc fusion, not shown: a dimerising Fc or GST; small tags and cut ends) scFv: EVQLVESGGGLVKPGGSLRLSCAASGFTFSSYSMNWVRQAPGKGLEWVSSISGQSNYIYYADSVKGRFTISRDNAKNSLYLQMNSLRAEDTAVYYCARGGNYFVEYFQYWGQGTLVTVSSGSGGGGSGGGGSGGGGSGGGGSEIVLTQSPGTLSLSPGERATLSCRASQYISSNNLAWYQQKPGQAPRLLIYGASNRATGIPDRFSGSGSGTDFTLTISRLEPEDFAVYYCQQYADSPITFGQGTKLEIK |
|  |  |  |  | 99.6 | 15B2 (protein, part only; not given: hinge, transmembrane and signalling domains, part only) CAR chain, part: EVQLVESGGGLVKPGGSLRLSCAASGFTFRSYSMNWVRQAPGKGLEWVSSISGSSNYIYYADSVKGRFTISRDNAKNSLYLQMNSLRAEDTAVYYCARGGNYYVEYFQYWGQGTLVTVSSGGGGSGGGGSGGGGSGGGGSEIVLTQSPGTLSLSPGERATLSCRASQYISSNYLAWYQQKPGQAPRLLIYGASNRATGIPDRFSGSGSGTDFTLTISRLEPEDFAVYYCQQYGSSPITFGQGTKLEIK |
